The values that follow come from the supplement of paper PMC10567573.

The chains are these.
B1: CPXM2 (parent)
chain: TASTKNCMVGYDMGATRCDFTLSK
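Note: lentivirally expressed fusions sorted by FACS into six bins by GFP to DsRed ratio, PSI derived from sequencing read proportions per bin multiplied by bin number.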

Variants of B1 are the subject of the data set. Kind of data set: protein stability index of a GFP-peptide fusion (GPS, HEK-293T) (PSI 1-6); higher = more stable. The following applies: c terminus: a fixed tail appended.
Take TASTKNCMVGYDMGATRCDFTWSK: the protein stability index was 1.74.

As for TASTKNCMVGYDMGATRCDFTRSK, the protein stability index came out at 2.35.

As to TASTKNCMVGYDMGATRCDFTCSK, the protein stability index turned out to be 2.42.

For the variant TASTKNCMVGYDMGATRCDFTISK, the protein stability index was determined as 1.88.

In the case of TASTKNCMVGYDMGATRCDFTHSK, the protein stability index came to 3.06.

TASTKNCMVGYDMGSTRCDFTLSK: the protein stability index is 1.68.

Regarding TASTKNCMVGYDMGCTRCDFTLSK, the protein stability index turned out to be 1.8.

With TASTKNCMVGYDMGGTRCDFTLSK, the protein stability index came to 2.61.

For the variant TASTKNCMVGYDMGPTRCDFTLSK, the protein stability index was determined as 2.33.

For TASTKNCMVGYDMGITRCDFTLSK, the protein stability index stood at 2.58.

Turning to TASTKNCMVGYDMGVTRCDFTLSK, the protein stability index was determined as 3.16.

For the variant TASTKNCMVGYDMGLTRCDFTLSK, the protein stability index stood at 2.71.

In the case of TASTKNCMVGYDMGETRCDFTLSK, the protein stability index was determined as 2.75.

As to TASTKNCMVGYDMGWTRCDFTLSK, the protein stability index turned out to be 2.71.

On to TASTKNCMVGYDMGQTRCDFTLSK, for which the protein stability index came out at 2.77.

In the case of TASTKNCMVGYDMGATRCDFTLST, the protein stability index amounted to 1.62.

On to TASTKNCMVGYDMGATRCDFTLSF, for which the protein stability index amounted to 4.01.

On to TASTKNCMVGYDMGATRCDFTLSA, for which the protein stability index was found to be 2.43.

For TASTKNCMVGYDMGATRCDFTLSH, the protein stability index came to 2.87.

Consider TASTKNCMVGYDMGATRCDFTLSN, for which the protein stability index is 2.03.

Regarding TASTKNCMVGYDMGATRCDFTLSD, the protein stability index is 2.37.

With TASTKNCMVGYDMGATRCDFTLSQ, the protein stability index was found to be 1.82.

Take TASTKNCMVGYCMGATRCDFTLSK: the protein stability index was found to be 1.88.

On to TASTKNCMVGYIMGATRCDFTLSK, for which the protein stability index was found to be 1.58.

For TASTKNCMVGYFMGATRCDFTLSK, the protein stability index is 1.62.

Regarding TASTKNCMVGYRMGATRCDFTLSK, the protein stability index is 2.58.

For TASTKNCMVGYAMGATRCDFTLSK, the protein stability index worked out at 2.37.

Turning to TASTKNLMVGYDMGATRCDFTLSK, the protein stability index turned out to be 3.27.

With TASTKNSMVGYDMGATRCDFTLSK, the protein stability index stood at 3.77.

Regarding TASTKNQMVGYDMGATRCDFTLSK, the protein stability index worked out at 3.69.

For the variant TASTKNVMVGYDMGATRCDFTLSK, the protein stability index worked out at 3.46.

With TASTKNMMVGYDMGATRCDFTLSK, the protein stability index was 3.06.

TASTKNEMVGYDMGATRCDFTLSK: the protein stability index is 4.44.

As to TASTKNRMVGYDMGATRCDFTLSK, the protein stability index worked out at 3.26.

For the variant TASTKNHMVGYDMGATRCDFTLSK, the protein stability index is 3.48.

Consider TASTKNPMVGYDMGATRCDFTLSK, for which the protein stability index was determined as 3.48.

For TASTKNCMVGYDMGATRCDFTLHK, the protein stability index worked out at 2.2.

As for TASTKNCMVGYDMGATRCDFTLTK, the protein stability index came out at 1.94.

Turning to TASTKNCMVGYDMGATRCDFTLQK, the protein stability index was determined as 2.26.

TASTKNCMVGYDMGATRCDFTLKK: the protein stability index amounted to 2.78.

As to TASTKNCMVGYDMGATRCDFTLRK, the protein stability index was found to be 3.34.

With TASTKNCMVGYDMGATRCDFTLGK, the protein stability index was 2.45.

Regarding TASTKNCMVGYDMGATRCDFTLEK, the protein stability index is 2.45.

As for TASTKNCMVGYDMGATRCDFTLVK, the protein stability index is 2.3.

Regarding TASTKNCMVGYDMGATRCDFTLIK, the protein stability index amounted to 1.89.

TASTKNCMVGYDMGATRCDFTLDK: the protein stability index amounted to 2.55.

With TASTKNCMVGYDIGATRCDFTLSK, the protein stability index turned out to be 2.11.

In the case of TASTKNCMVGYDPGATRCDFTLSK, the protein stability index turned out to be 2.31.

TASTKNCMVGYDNGATRCDFTLSK: the protein stability index was determined as 3.21.

Regarding TASTKNCMVGYDKGATRCDFTLSK, the protein stability index worked out at 1.91.

As to TASTKNCMVGYDYGATRCDFTLSK, the protein stability index turned out to be 2.54.

As to TASTKNCMVGYDSGATRCDFTLSK, the protein stability index came to 2.81.

With TASTKNCMVGYDHGATRCDFTLSK, the protein stability index worked out at 2.64.

For TASTKNCMVGYDFGATRCDFTLSK, the protein stability index came to 2.01.

For the variant TASTKNCMVGYDMGATRCDFFLSK, the protein stability index was 2.11.

Consider TASTKNCMVGYDMGATRCDFYLSK, for which the protein stability index was 1.91.

As to TASTKNCMVGYDMGATRCDFSLSK, the protein stability index turned out to be 2.21.

Turning to TASTKNCMVGYDMGATRCDFHLSK, the protein stability index came out at 3.16.

In the case of TASTKNCMVGYDMGATRCDFILSK, the protein stability index is 2.02.

Turning to TASTKNCMVGYDMGATRCDFALSK, the protein stability index was 2.37.

Regarding TASTKNCMVGYDMGATRCDFLLSK, the protein stability index is 2.52.

TASTKNCMVGYDMGATRCDFWLSK: the protein stability index stood at 1.67.

For TASTKNCMVGYDMGATRCDFKLSK, the protein stability index was 3.35.

Turning to TASTKNCMVGYDMGATRCDFPLSK, the protein stability index is 2.71.

Take TESTKNCMVGYDMGATRCDFTLSK: the protein stability index came out at 3.9.

Take TWSTKNCMVGYDMGATRCDFTLSK: the protein stability index stood at 1.73.

Take TLSTKNCMVGYDMGATRCDFTLSK: the protein stability index is 1.99.

For TNSTKNCMVGYDMGATRCDFTLSK, the protein stability index amounted to 3.16.

Regarding THSTKNCMVGYDMGATRCDFTLSK, the protein stability index is 2.26.

Turning to TCSTKNCMVGYDMGATRCDFTLSK, the protein stability index was determined as 1.64.

In the case of TASTMNCMVGYDMGATRCDFTLSK, the protein stability index was 2.38.

Regarding TASTPNCMVGYDMGATRCDFTLSK, the protein stability index came out at 3.18.

Take TASTWNCMVGYDMGATRCDFTLSK: the protein stability index was 1.97.

Turning to TASTNNCMVGYDMGATRCDFTLSK, the protein stability index turned out to be 2.28.

For TASTANCMVGYDMGATRCDFTLSK, the protein stability index is 2.3.

On to TASTCNCMVGYDMGATRCDFTLSK, for which the protein stability index was found to be 1.74.

TASTHNCMVGYDMGATRCDFTLSK: the protein stability index was 2.4.

In the case of QASTKNCMVGYDMGATRCDFTLSK, the protein stability index was 2.52.

As to VASTKNCMVGYDMGATRCDFTLSK, the protein stability index came to 1.61.

Consider RASTKNCMVGYDMGATRCDFTLSK, for which the protein stability index turned out to be 1.92.

Regarding YASTKNCMVGYDMGATRCDFTLSK, the protein stability index worked out at 1.71.

As for CASTKNCMVGYDMGATRCDFTLSK, the protein stability index was determined as 1.68.

In the case of DASTKNCMVGYDMGATRCDFTLSK, the protein stability index turned out to be 3.69.

As for GASTKNCMVGYDMGATRCDFTLSK, the protein stability index was 1.88.

Turning to KASTKNCMVGYDMGATRCDFTLSK, the protein stability index is 2.05.

With WASTKNCMVGYDMGATRCDFTLSK, the protein stability index turned out to be 1.59.

Regarding EASTKNCMVGYDMGATRCDFTLSK, the protein stability index worked out at 3.37.

As to TASTKGCMVGYDMGATRCDFTLSK, the protein stability index stood at 2.38.

As for TASTKVCMVGYDMGATRCDFTLSK, the protein stability index is 2.16.

In the case of TASTKECMVGYDMGATRCDFTLSK, the protein stability index was 3.22.

For TASTKACMVGYDMGATRCDFTLSK, the protein stability index amounted to 2.69.

Take TASTKFCMVGYDMGATRCDFTLSK: the protein stability index came out at 2.12.

TASTKNCPVGYDMGATRCDFTLSK: the protein stability index worked out at 2.06.

Consider TASTKNCTVGYDMGATRCDFTLSK, for which the protein stability index is 2.42.
